In test [1] the target is epidermal growth factor receptor on live cells (human (endogenous in UM-SCC-14C and A431)) (UniProt P00533). The experiment in a line: radioligand binding.
Test [2] shares this target. The experiment in a line: radioligand binding. This is another data set of the same source.

Where two headings read alike, the source gives them in different places.

“bi-paratopic nanobody 9G8-7D12 (bispecific antibody)”: the Kd amounted to 7.1 nM in test [1] and 7.5 nM in test [2].

Usually Kd stands for the free concentration of one partner at which half of the binding sites on the other are occupied at equilibrium, for simple one-to-one binding. Lower therefore signals a tighter complex.

The values above are taken from paper PMC4197845.
